Test results: PMC11119796
Several values for one entry are separate records, joined by “and”; a condition that tells them apart may be missing. Equal values may be shown once.

Experiments:
[1] = molecular target: endogenous PKM2 (A549 cells) (human (endogenous in A549)) (UniProt P14618); assay: cross-linking; DSS 250 μM added to collected cells in PBS pH 8.0, 30 min at 37 °C, quenched with 10 mM Tris-HCl pH 7.5; lysis and Western blot of PKM2; 4T1 cells (control or Islr-deleted) and A549 cells (with or without stable ISLR, H2O2 at indicated dose for 30 min)
[2] = molecular target: endogenous Pkm2 (4T1 cells) (mouse (endogenous in 4T1)) (UniProt P52480); assay: as above

Chain of endogenous Pkm2 (4T1 cells), P52480 1-531 (enzyme; other documents disagree on this pair) (P52480 whole entry): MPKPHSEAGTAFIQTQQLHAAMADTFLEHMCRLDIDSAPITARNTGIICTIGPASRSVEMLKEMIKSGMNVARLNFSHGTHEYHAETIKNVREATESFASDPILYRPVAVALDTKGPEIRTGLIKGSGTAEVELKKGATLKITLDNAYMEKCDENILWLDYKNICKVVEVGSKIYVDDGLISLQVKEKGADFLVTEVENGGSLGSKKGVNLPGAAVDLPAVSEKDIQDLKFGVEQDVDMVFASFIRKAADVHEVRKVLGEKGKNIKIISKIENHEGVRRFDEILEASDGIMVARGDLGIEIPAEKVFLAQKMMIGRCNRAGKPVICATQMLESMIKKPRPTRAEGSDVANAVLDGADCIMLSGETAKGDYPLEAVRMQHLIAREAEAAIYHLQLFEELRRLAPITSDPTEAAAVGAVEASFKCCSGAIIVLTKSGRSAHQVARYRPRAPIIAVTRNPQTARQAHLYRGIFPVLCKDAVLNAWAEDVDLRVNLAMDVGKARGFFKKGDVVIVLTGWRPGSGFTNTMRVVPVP
Chain of endogenous PKM2 (A549 cells), P14618 1-531 (enzyme; other documents disagree on this pair) (P14618 whole entry): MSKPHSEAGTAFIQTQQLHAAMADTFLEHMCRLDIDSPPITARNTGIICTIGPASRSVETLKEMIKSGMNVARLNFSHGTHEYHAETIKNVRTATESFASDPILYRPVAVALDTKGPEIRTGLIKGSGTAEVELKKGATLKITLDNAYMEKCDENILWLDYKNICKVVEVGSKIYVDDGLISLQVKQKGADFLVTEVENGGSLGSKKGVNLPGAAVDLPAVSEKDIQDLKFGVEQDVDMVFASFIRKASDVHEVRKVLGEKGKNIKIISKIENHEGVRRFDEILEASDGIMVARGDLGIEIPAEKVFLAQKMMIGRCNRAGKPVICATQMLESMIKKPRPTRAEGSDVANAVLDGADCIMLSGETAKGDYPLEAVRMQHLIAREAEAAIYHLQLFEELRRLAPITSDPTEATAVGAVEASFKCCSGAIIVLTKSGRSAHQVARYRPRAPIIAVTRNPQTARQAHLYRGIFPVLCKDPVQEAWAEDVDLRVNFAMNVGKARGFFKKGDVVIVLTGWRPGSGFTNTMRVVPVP

| Substance | stoichiometry N [1] | stoichiometry N [2] |
| --- | --- | --- |
| endogenous PKM2 (A549 cells), P14618 1-531 (enzyme; other documents disagree on this pair) | 2 |  |
| endogenous Pkm2 (4T1 cells), P52480 1-531 (enzyme; other documents disagree on this pair) |  | 2 and 4 |
